From patent US20230082465A1 (published 2023)

Columns and labels:
Fibrinogen Fragment D = biological target: T1, Fibrinogen Fragment D (human, UniProt P02671 124-216; P02675 164-491; P02679 89-437); assay: BLI
T1 chain 1: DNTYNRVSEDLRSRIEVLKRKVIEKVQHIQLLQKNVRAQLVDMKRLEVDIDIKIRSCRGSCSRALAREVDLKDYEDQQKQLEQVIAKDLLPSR
T1 chain 2: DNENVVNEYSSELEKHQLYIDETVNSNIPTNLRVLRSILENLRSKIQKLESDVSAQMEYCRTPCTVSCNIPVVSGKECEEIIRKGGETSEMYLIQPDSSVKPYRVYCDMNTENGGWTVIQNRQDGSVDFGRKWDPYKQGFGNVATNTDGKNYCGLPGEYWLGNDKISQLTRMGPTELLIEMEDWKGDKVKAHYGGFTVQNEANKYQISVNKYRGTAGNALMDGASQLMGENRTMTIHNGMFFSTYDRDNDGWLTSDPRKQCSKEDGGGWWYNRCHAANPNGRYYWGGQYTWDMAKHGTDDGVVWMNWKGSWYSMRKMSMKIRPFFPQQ
T1 chain 3: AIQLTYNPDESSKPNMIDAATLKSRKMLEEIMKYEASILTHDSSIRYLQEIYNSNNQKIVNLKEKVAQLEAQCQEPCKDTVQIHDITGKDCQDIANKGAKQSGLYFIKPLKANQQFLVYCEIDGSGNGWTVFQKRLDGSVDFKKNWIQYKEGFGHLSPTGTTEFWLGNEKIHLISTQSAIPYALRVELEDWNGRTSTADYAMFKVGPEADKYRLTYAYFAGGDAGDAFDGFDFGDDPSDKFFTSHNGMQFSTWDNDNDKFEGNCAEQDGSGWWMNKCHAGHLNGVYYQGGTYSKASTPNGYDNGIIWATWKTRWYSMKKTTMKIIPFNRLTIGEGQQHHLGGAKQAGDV

Fragment DD from fibrin = biological target: T2, Fragment DD from fibrin (human, UniProt P02671 124-216; P02675 164-491; P02679 89-437); assay: BLI
T2 chain 1: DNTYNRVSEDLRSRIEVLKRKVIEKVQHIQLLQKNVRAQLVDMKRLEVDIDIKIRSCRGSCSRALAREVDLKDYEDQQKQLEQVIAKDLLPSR
T2 chain 2: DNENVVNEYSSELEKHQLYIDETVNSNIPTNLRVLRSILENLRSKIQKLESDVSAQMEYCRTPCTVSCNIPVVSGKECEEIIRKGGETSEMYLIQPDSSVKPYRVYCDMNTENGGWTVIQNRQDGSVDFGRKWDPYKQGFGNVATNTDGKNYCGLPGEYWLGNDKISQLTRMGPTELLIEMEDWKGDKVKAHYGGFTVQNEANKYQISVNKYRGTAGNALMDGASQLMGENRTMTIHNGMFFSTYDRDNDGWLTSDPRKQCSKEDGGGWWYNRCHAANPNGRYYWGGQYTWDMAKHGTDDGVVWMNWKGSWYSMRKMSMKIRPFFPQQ
T2 chain 3: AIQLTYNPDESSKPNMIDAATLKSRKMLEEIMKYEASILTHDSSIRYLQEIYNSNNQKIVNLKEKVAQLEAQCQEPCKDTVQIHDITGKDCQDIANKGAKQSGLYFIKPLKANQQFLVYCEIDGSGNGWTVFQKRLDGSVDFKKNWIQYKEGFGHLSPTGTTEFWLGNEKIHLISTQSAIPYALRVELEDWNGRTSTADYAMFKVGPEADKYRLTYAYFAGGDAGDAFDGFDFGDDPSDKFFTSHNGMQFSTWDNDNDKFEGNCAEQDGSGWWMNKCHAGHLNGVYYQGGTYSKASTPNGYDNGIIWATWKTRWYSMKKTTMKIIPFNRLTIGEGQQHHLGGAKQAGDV

B1: recombinant antibody #12 (antibody, V domains shown)
VH: QVQLQQPGAEVVRPGASVKLSCKASGYSFTSYWIHWLKQGPHQGLEWIGRIDPDDSETHYNQKFKDKALLTVDKSSSTAYMQLRSLTSEDSAVYYCARTNWDAWFAYWGQGTLVTVSA
VL: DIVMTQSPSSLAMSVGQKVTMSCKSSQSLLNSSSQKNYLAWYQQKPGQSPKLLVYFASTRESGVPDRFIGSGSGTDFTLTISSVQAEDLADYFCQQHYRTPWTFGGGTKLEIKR
Kd (Fibrinogen Fragment D): 36.8 nM
Kd (Fragment DD from fibrin): 0.417 nM
